In article PMC7192610:
Read-outs that look alike come from different tables or passages of the source.

What was measured:
GST-p53(1-393) [1] = biological target: T1, GST-p53(1-393) (Homo sapiens, UniProt P04637 1-393); assay: EMSA
GST-p53(1-393) [2] = biological target: T1, GST-p53(1-393); assay: EMSA; remark: listed apart in the source

T1 sequence (P04637 whole entry): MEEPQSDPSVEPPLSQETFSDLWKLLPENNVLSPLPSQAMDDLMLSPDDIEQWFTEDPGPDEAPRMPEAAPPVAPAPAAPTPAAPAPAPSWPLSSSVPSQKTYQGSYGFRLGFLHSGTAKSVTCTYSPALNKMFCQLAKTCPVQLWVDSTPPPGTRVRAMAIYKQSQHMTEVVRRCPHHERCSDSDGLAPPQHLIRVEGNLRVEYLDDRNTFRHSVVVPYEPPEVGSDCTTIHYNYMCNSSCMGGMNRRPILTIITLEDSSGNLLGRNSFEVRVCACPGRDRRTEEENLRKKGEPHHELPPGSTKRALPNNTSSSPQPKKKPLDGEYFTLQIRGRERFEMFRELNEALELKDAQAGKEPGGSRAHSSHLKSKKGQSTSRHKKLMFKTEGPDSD

B1: CCNG1 L2 (dsDNA)
DNA 1: TACAAGGAGGCTTTTCATCCGCACAAGCCCAGGCTAGTCCGAGGCTGGAGGGGCGGAGCC
DNA 2: GGCTCCGCCCCTCCAGCCTCGGACTAGCCTGGGCTTGTGCGGATGAAAAGCCTCCTTGTA
B1: binds (GST-p53(1-393) [1]).

B2: CCNG1 WT (dsDNA)
DNA 1: AAACTCTACCGCTGTTGTGAGCACAAGCCCAGGCTAGTCCGAGGCTGGAGGGGCGGAGCC
DNA 2: GGCTCCGCCCCTCCAGCCTCGGACTAGCCTGGGCTTGTGCTCACAACAGCGGTAGAGTTT
B2: binds (GST-p53(1-393) [2]).
